Laboratory results: patent US20190100594A1
Like-named read-outs stand apart in the source and are kept apart here.

Key:
[1] = target: GITR expressed on CHO cells (Homo sapiens (Human)) (UniProt Q9Y5U5); assay: flow cytometry on GITR-expressing CHO cells, MFI-FL4
[2] = target: GITR expressed on CHO cells (Homo sapiens (Human)) (UniProt Q9Y5U5); assay: as above; remark: listed apart in the source

Chain of GITR expressed on CHO cells (Homo sapiens (Human)) (Q9Y5U5 26-241 limits assumed): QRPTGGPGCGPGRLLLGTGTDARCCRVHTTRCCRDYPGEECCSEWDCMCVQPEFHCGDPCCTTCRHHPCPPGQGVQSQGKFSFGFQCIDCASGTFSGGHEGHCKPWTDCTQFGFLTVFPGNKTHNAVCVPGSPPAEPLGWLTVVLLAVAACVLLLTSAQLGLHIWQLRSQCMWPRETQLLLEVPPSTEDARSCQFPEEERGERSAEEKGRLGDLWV

TRX-518 (antibody)
EC50 (read off the curve) [1]: 1 nM
EC50 (read off the curve) [2]: 3 nM
